{"source": "paper PMC5909435", "binders": {"B1": {"name": "non-specific 18 bp duplex with 13 nt overhang (mixed)", "DNA 1": "GTCACTGTTCGAGCACCA", "DNA 2": "CCATAGATAGCATTGGTGCTCGAACAGTGAC"}}, "biological_target": "T1, TFAM K4Q4 (acetyl-lysine mimic) (Homo sapiens, UniProt Q00059 43-246, K62Q;K76Q;K111Q;K118Q)", "T1 sequence": "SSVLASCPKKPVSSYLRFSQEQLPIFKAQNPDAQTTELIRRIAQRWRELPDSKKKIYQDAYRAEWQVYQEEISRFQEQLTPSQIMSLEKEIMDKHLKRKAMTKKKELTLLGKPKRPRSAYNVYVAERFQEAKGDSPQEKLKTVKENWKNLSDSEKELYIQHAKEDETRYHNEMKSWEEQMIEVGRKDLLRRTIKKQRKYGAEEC", "test": "MST"}
{"binder": "B1", "values": [{"measurement": "Kd", "result": "131 ± 17", "unit": "nM"}]}
